Paper PMC3365014, “Specific Recognition of p53 Tetramers by Peptides Derived from p53 Interacting Proteins” (PLoS ONE, 2012)

Legend:
[1] = target: p53 monomer (Homo sapiens) (UniProt P04637); conditions: cited from earlier work
[2] = target: WS100B(61–75), fluorescein-labeled; experiment: fluorescence polarisation; fluorescence anisotropy at increasing NaCl; p53CTD titrated into 200 nM peptide; 10 mM sodium phosphate pH 7.2, 25°C; ln(Kd) against ln(NaCl activity) fit linearly and extrapolated to physiological ionic strength

Substance | Kd [1] [nM] | Estimated physiological Kd [2] [µM]
p53 monomer (from UniProt P04637) | 1 | –
p53 C-terminal domain (p53CTD, residues 293–393) (from UniProt P04637 293-393) (domain or fragment) | – | 19
